Like-named read-outs stand apart in the source and are kept apart here. Blank lines part the entries; values can stand above or below the molecule they belong to.
Tests used:
F-actin = F-actin (UniProt P68135); assay: pull-down; actin isolation: 5 µM MVI ± 15 µM NDP52 with 5 µM F-actin (20% biotinylated), streptavidin Dynabeads, 150 mM NaCl, 50 mM Tris.HCl pH 7.5, 1 mM MgCl2, 1 mM DTT, RT; SDS–PAGE of pellet and supernatant
MVI_(814–1060) = assay: FRET or BRET; titration of Alexa555-CBD against 1 µM FITC-labelled N-terminal tail fragment, plate reader, 25°C, 50 mM Tris·HCl pH 7.5, 150 mM NaCl, 1 mM DTT; fitted to a quadratic binding equation
[1] = target: MVI_(814–1091) (containing the LI); assay: as above
MVI_(TAIL(NI)) [2] = assay: FRET or BRET; stopped flow; 1 µM FITC-MVI_TAIL(NI) and 1 µM AF555-MVI_TAIL(NI) pre-mixed, then mixed with an excess of unlabelled NDP52, pseudo-first order; 25°C, 50 mM Tris–HCl pH 7.5, 150 mM NaCl, 1 mM DTT, 3 mM MgCl2
MVI_(TAIL(NI)) [3] = assay: as above; remark: listed apart in the source
MVI_(TAIL(NI)) [4] = target: MVI_(TAIL(NI))
MVI_(TAIL(NI)) [5] = assay: FRET or BRET; stopped flow; 1 µM FITC-MVI_TAIL(NI) mixed with excess AF555-NDP52, pseudo-first order; 25°C, 50 mM Tris–HCl pH 7.5, 150 mM NaCl, 1 mM DTT, 3 mM MgCl2
[6] = target: T1, nuclear dot protein 52 (NDP52), Q13137; assay: SEC-MALS; 100 µl of 2 mg/ml protein on Superdex 200 (30 × 1 cm), 150 mM NaCl, 50 mM Tris.HCl pH 7.5, 1 mM DTT, room temperature; conditions: remark: other sources report otherwise
T1 chain: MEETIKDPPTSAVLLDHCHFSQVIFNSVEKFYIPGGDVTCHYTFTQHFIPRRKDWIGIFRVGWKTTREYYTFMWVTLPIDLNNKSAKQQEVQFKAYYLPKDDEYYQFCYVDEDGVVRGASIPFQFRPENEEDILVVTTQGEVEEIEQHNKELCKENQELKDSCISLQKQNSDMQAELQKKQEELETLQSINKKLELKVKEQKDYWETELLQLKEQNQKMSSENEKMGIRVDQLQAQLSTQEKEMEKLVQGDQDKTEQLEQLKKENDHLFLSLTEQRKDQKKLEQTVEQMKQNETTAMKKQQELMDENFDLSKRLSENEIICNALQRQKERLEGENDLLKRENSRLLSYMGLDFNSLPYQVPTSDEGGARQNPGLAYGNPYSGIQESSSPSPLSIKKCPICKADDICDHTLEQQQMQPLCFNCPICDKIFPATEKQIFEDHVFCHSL

- observed rate constant of the FRET increase (dimerization after adding NDP52) (MVI_(TAIL(NI)) [2]): 2.45 s⁻¹
- observed rate constant of the FRET increase (dimerization after adding NDP52) (MVI_(TAIL(NI)) [3]): 2.2 s⁻¹
Molecule: MVI_(TAIL(NI)) (domain or fragment)

- rate constant of the fluorescence decrease of Cy3B-calmodulin bound to MVI TAIL(NI) on mixing with excess NDP52 (unfolding; independent of NDP52 concentration) (MVI_(TAIL(NI)) [4]): 1.95 s⁻¹
- Kd (MVI_(TAIL(NI)) [5]): 1.94 µM
- koff (MVI_(TAIL(NI)) [5]): 3.2 s⁻¹
- kon (MVI_(TAIL(NI)) [5]): 1.65e+06 M⁻¹ s⁻¹
- rate constant of the second phase (unfolding after binding, independent of NDP52 concentration) (MVI_(TAIL(NI)) [5]): 2.2 s⁻¹
B1: nuclear dot protein 52 (NDP52) (natural protein)
chain: T1 chain
modifications: Alexa Fluor 555 label in the stopped-flow FRET assay (site not stated); unlabelled elsewhere

The remaining lines, values behind:

Molecule: MVI_(1–1060) (domain or fragment)
- kcat of the steady-state actin-activated ATPase of MVI 1-1060 (MVI_(1–1060)): 2.79 s⁻¹

Molecule: Full-length MVI NI (natural protein)
- kcat of the steady-state actin-activated ATPase of full-length MVI in the presence of dimeric NDP52 (Full-length MVI NI): 2.11 s⁻¹
- kcat of the steady-state actin-activated ATPase of full-length MVI in the presence of monomeric tDab2 (Full-length MVI NI): 2.55 s⁻¹
- percent of MVI bound to actin (F-actin): 50%
- percent of MVI bound to actin (with an excess of NDP52) (F-actin): > 80%

Molecule: Myosin VI cargo binding domain (CBD) (domain or fragment)
- Kd (MVI_(814–1060)): 4.8 µM
- Kd [1]: 5.98 µM

B2: nuclear dot protein 52 (NDP52), Q13137 1-446 (natural protein)
chain: T1 chain
modifications: here or on the partner: Alexa Fluor 555 label in the stopped-flow FRET assay (site not stated); unlabelled elsewhere; Alexa Fluor 555 label in the stopped-flow FRET assay (site not stated); unlabelled elsewhere
- stoichiometry N [6]: 2
